According to doi:10.1101/2023.11.29.569174v1:

Legend:
Assay in all cases: purified protein
[1] = substrate: CC(C)=CCC/C(C)=C/CC/C(C)=C/CO[P@@](=O)(O)OP(=O)(O)O; settings: pH 8.0, 22 °C, 10 mM Mg acetate, 40 mM NaCl, 0.01% Tween 20
[2] = substrate: CC(C)=CCC/C(C)=C/CC/C(C)=C/CC/C(C)=C/COP(=O)(O)OP(=O)(O)O; settings: pH 8.0, 22 °C, 10 mM Mg acetate, 40 mM NaCl, 0.01% Tween 20
[3] = substrate: C[C@@](O)(CCOP(=O)(O)OP(=O)(O)O)CC(=O)O; settings: pH 8.0, 22 °C, 10 mM Mg acetate, 40 mM NaCl, 0.01% Tween 20
[4] = substrate: CC(C)=CCOP(=O)(O)OP(=O)(O)O; settings: pH 8.0, 22 °C, 10 mM Mg acetate, 40 mM NaCl, 0.01% Tween 20
[5] = substrate: C=C(C)CCO[P@@](=O)(O)OP(=O)(O)O; settings: pH 8.0, 22 °C, 10 mM Mg acetate, 40 mM NaCl, 0.01% Tween 20
[6] = substrate: CC(C)=CCC/C(C)=C/COP(=O)(O)OP(=O)(O)O; settings: pH 8.0, 22 °C, 10 mM Mg acetate, 40 mM NaCl, 0.01% Tween 20
[7] = substrate: Nc1nc2c(ncn2[C@H]2C[C@H](O)[C@@H](COP(=O)(O)OP(=O)(O)OP(=O)(O)O)O2)c(=O)[nH]1; settings: pH 8.0, 22 °C, 10 mM Mg acetate, 40 mM NaCl

B1: NUDT18 (Homo sapiens) (protein)
chain: MASEGLAGALASVLAGQGSSVHSCDSAPAGEPPAPVRLRKNVCYVVLAVFLSEQDEVLLIQEAKRECRGSWYLPAGRMEPGETIVEALQREVKEEAGLHCEPETLLSVEERGPSWVRFVFLARPTGGILKTSKEADAESLQAAWYPRTSLPTPLRAHDILHLVELAAQYRQQARHPLILPQELPCDLVCQRLVATFTSAQTVWVLVGTVGMPHLPVTACGLDPMEQRGGMKMAVLRLLQECLTLHHLVVEIKGLLGLQHLGRDHSDGICLNVLVTVAFRSPGIQDEPPKVRGENFSWWKVMEEDLQSQLLQRLQGSSVVPVNR
[1]
  Km: 18.8 ± 3.9 µM
  kcat: 0.52 s⁻¹
[2]
  Km: 17.9 ± 3.4 µM
  kcat: 0.15 s⁻¹
[3]
  Km: 26.8 ± 2.8 µM
  kcat: 0.55 s⁻¹
[4]
  Km: 9.8 ± 2.9 µM
  kcat: 0.94 s⁻¹
[5]
  Km: 12.4 ± 2.6 µM
  kcat: 0.87 s⁻¹
[6]
  Km: 3.7 ± 0.4 µM
  kcat: 0.78 s⁻¹

B2: NUDT15 (Homo sapiens) (protein)
chain: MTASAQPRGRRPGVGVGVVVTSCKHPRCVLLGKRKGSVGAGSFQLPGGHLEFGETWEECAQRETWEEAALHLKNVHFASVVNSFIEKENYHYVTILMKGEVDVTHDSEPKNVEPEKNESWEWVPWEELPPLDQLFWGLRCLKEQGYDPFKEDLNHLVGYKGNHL
[7]
  Km: 21 µM
  kcat: 0.637 s⁻¹
[4]
  Km: 159.3 ± 40.5 µM
  kcat: 0.94 s⁻¹
[5]
  Km: 63.6 ± 19.4 µM
  kcat: 0.49 s⁻¹
[6]
  Km: 18.7 ± 0.2 µM
  kcat: 0.72 s⁻¹
